The text below walks through data of US20250090583A1.

Assay [1] concerns the target MART-1 peptide … (ELA) presented by HLA-A2 on peptide-pulsed T2 cells. The assay is described as follows: cell-based or functional assay.
The target in assay [2] is CD3 of the TCR-CD3 complex on human T cells (human) (UniProt P07766). The assay can be described thus: cell-based or functional assay.

Bounds are passed on as bounds.

Regarding “DMF5 TCR with alpha chain connecting peptide motif mutated to GGGSGSG”, the NFAT-GFP in Jurkat cells co-cultured overnight with ELA-pulsed T2 cells, against WT Jkt-DMF5 in assay [1] came to 50 % reduction. For the substance blinatumomab (bispecific antibody), in assay [2], the NFAT-GFP in Jkt-DMF5FATADALN cells co-cultured with Raji (CD19+) cells and blinatumomab, against WT Jkt-DMF5 was < 80 % reduction; the NFAT-GFP in Jkt-DMF5GGGSGSG cells co-cultured with Raji (CD19+) cells and blinatumomab, against WT Jkt-DMF5 was < 80 % reduction.
